Results on two molecules are retold here after patent US20180250376A1 (US Dept. of Health and Human Services, published 2018).

“And” between values parts separate entries of the source, which are not always exact repeats. Equal entries are not always repeated.

In this assay the target is PA-U7 (Bacillus anthracis, UniProt P13423 30-764).

For orientation: Kd means a measure of binding affinity in units of concentration. A high value points to weaker binding.

B1: CMG2 on CHO CMG2-C4 cells (receptor)
chain: not shown
As to B1, the Kd is 8 nM and 12 nM.

B2: TEM8 on CHO TEM8-T4 cells (receptor)
chain: not shown
Consider B2, for which the Kd was 25 nM and 35 nM.
